In patent publication US20110123544A1 (published 2011):

T1: recombinant human IL-12 (rhIL-12) (human, UniProt P29459 23-219; P29460 23-328)
T1 chain 1: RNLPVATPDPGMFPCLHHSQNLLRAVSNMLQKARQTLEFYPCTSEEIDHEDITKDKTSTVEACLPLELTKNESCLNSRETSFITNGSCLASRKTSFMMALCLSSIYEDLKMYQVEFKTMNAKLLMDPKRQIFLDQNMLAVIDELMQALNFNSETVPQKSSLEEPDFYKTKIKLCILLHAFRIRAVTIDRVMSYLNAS
T1 chain 2: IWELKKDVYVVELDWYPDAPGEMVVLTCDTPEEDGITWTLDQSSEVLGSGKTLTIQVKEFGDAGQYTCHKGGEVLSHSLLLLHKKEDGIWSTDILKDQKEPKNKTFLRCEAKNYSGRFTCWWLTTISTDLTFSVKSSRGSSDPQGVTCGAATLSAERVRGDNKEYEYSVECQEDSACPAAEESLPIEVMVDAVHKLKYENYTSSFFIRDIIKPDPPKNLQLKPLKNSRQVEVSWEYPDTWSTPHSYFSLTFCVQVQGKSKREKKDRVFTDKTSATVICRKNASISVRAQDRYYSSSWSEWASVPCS

B1: Y61 L50 M (peptide)
chain: MNDQRPS
B2: Y61 L53 Y (peptide)
chain: GNDYRPS
B3: Y61 L53 S (peptide)
chain: GNDSRPS
B4: Y61 L50 C (peptide)
chain: CNDQRPS
B5: Y61 L50 L (peptide)
chain: LNDQRPS
B6: Y61 L50 R (peptide)
chain: RNDQRPS
B7: Y61 L50 W (peptide)
chain: WNDQRPS
B8: Y61 L50 V (peptide)
chain: VNDQRPS
B9: Y61 L53 R (peptide)
chain: GNDRRPS
B10: Y61 L50 E (peptide)
chain: ENDQRPS
B11: Y61 L50 F (peptide)
chain: FNDQRPS
B12: Y61 L53 P (peptide)
chain: GNDPRPS
B13: Y61 L50 T (peptide)
chain: TNDQRPS
B14: Y61 L50 K (peptide)
chain: KNDQRPS
B15: Y61 L53 T (peptide)
chain: GNDTRPS
B16: Y61 L50 A (peptide)
chain: ANDQRPS
B17: Y61 L50 I (peptide)
chain: INDQRPS
B18: Y61 L53 I (peptide)
chain: GNDIRPS
B19: Y61 L53 A (peptide)
chain: GNDARPS
B20: Y61 L50 N (peptide)
chain: NNDQRPS
B21: Y61 L50 H (peptide)
chain: HNDQRPS
B22: Y61 L50 D (peptide)
chain: DNDQRPS
B23: Y61 L50 S (peptide)
chain: SNDQRPS
B24: Y61 L30 R (peptide)
chain: SGGRSNIGRNTVK
B25: Y61 L32 A (peptide)
chain: SGGRSNIGSNAVK
B26: Y61 L32 C (peptide)
chain: SGGRSNIGSNCVK
B27: Y61 L32 I (peptide)
chain: SGGRSNIGSNIVK
B28: Y61 L31 E (peptide)
chain: SGGRSNIGSETVK
B29: Y61 L32 V (peptide)
chain: SGGRSNIGSNVVK
B30: Y61 L31 K (peptide)
chain: SGGRSNIGSKTVK
B31: Y61 L32 R (peptide)
chain: SGGRSNIGSNRVK
B32: Y61 L32 Q (peptide)
chain: SGGRSNIGSNQVK
B33: Y61 L31 S (peptide)
chain: SGGRSNIGSSTVK
B34: Y61 L31 D (peptide)
chain: SGGRSNIGSDTVK
B35: Y61 L32 P (peptide)
chain: SGGRSNIGSNPVK
B36: Y61 L32 Y (peptide)
chain: SGGRSNIGSNYVK
B37: Y61 L30 Y (peptide)
chain: SGGRSNIGYNTVK
B38: Y61 L31 Y (peptide)
chain: SGGRSNIGSYTVK
B39: Y61 L32 D (peptide)
chain: SGGRSNIGSNDVK
B40: Y61 L31 M (peptide)
chain: SGGRSNIGSMTVK
B41: Y61 L32 H (peptide)
chain: SGGRSNIGSNHVK
B42: Y61 L31 H (peptide)
chain: SGGRSNIGSHTVK
B43: Y61 L31 Q (peptide)
chain: SGGRSNIGSQTVK
B44: Y61 L30 K (peptide)
chain: SGGRSNIGKNTVK
B45: Y61 L31 T (peptide)
chain: SGGRSNIGSTTVK
B46: Y61 L31 I (peptide)
chain: SGGRSNIGSITVK
B47: Y61 L30 T (peptide)
chain: SGGRSNIGTNTVK
B48: Y61 L30 N (peptide)
chain: SGGRSNIGNNTVK
B49: Y61 L30 C (peptide)
chain: SGGRSNIGCNTVK
B50: Y61 L32 K (peptide)
chain: SGGRSNIGSNKVK
B51: Y61 L32 L (peptide)
chain: SGGRSNIGSNLVK
B52: Y61 L32 N (peptide)
chain: SGGRSNIGSNNVK
B53: Y61 L30 D (peptide)
chain: SGGRSNIGDNTVK
B54: Y61 L32 S (peptide)
chain: SGGRSNIGSNSVK
B55: Y61 L31 G (peptide)
chain: SGGRSNIGSGTVK
B56: Y61 L30 P (peptide)
chain: SGGRSNIGPNTVK

Target: T1, recombinant human IL-12 (rhIL-12)
Assay: BIAcore

koff [s⁻¹] | Binder
0.000953 | B1
0.000733 | B2
0.000866 | B3
0.000467 | B4
0.000616 | B5
0.000444 | B6
0.000382 | B7
0.000385 | B8
0.000614 | B9
0.000617 | B10
0.0348 | B11
0.000974 | B12
0.000272 | B13
0.00243 | B14
0.000834 | B15
0.000372 | B16
0.0012 | B17
0.000855 | B18
0.000554 | B19
0.000305 | B20
0.000761 | B21
0.000348 | B22
0.000286 | B23

Target: T1, recombinant human IL-12 (rhIL-12)
Assay: BIAcore
Remark: another data set of the same source

koff [s⁻¹] | Binder
0.000182 | B24
0.00191 | B25
0.00381 | B26
0.00154 | B27
0.000384 | B28
0.00164 | B29
0.000331 | B30
0.0069 | B31
0.00247 | B32
0.000392 | B33
0.00058 | B34
0.000424 | B35
0.000213 | B36
0.000483 | B37
0.000357 | B38
0.000252 | B39
0.000174 | B40

koff [s⁻¹] | Binder
0.00026 | B41
0.000315 | B42
0.000292 | B43
0.000346 | B44
0.000309 | B45
9.7e-05 | B46
0.000226 | B47
0.000166 | B48
0.000186 | B49
0.000318 | B50
0.00215 | B51
0.00197 | B52
0.00022 | B53
0.00191 | B54
0.000366 | B55
0.00025 | B56
